# Test results reported in US20130078234A1 (Daiichi Sankyo, published 2013).
# Positions count from the first letter of the chain named.
# B1: M30 antibody (mouse anti-human B7-H3 monoclonal antibody produced by B7-H3 hybridoma M30) (antibody, mouse IgG2a, kappa)
# heavy: EVQLQQSGPELVKPGASVKMSCKASGYTFTNYVMHWVKQKPGQGLEWIGYINPYNDDVKYNEKFKGKATQTSDKSSSTAYMELSSLTSEDSAVYYCARWGYYGSPLYYFDYWGQGTTLTVSSAKTTAPSVYPLAPVCGDTTGSSVTLGCLVKGYFPEPVTLTWNSGSLSSGVHTFPAVLQSDLYTLSSSVTVTSSTWPSQSITCNVAHPASSTKVDKKIEPRGPTIKPCPPCKCPAPNLLGGPSVFIFPPKIKDVLMISLSPIVTCVVVDVSEDDPDVQISWFVNNVEVHTAQTQTHREDYNSTLRVVSALPIQHQDWMSGKEFKCKVNNKDLPAPIERTISKPKGSVRAPQVYVLPPPEEEMTKKQVTLTCMVTDFMPEDIYVEWTNNGKTELNYKNTEPVLDSDGSYFMYSKLRVEKKNWVERNSYSCSVVHEGLHNHHTTKSFSRTPGK
# light: QIVLSQSPTILSASPGEKVTMTCRASSRLIYMHWYQQKPGSSPKPWIYATSNLASGVPARFSGSGSGTSYSLTISRVEAEDAATYYCQQWNSNPPTFGTGTKLELKRADAAPTVSIFPPSSEQLTSGGASVVCFLNNFYPKDINVKWKIDGSERQNGVLNSWTDQDSKDSTYSMSSTLTLTKDEYERHNSYTCEATHKTSTSPIVKSFNRNEC
# notes: Mouse IgG2a, kappa; Used as hybridoma culture supernatant in the flow cytometry and as purified antibody in SPR and ELISA; also called mouse antibody M30
# Experiments:
# [1] = target: T1, B7-H3 IgV1 (B7-H3 partial protein, on transfected NIH-3T3 cells) (human, UniProt Q5ZPR3 27-534); assay: flow cytometry on NIH-3T3 cells transfected with the B7-H3 IgV1 expression vector; fluorescein anti-mouse IgG secondary; FL1 Log histogram
# T1 construct: expressed on cells from pFLAG-myc-CMV-19-DEST; leader or tag from the vector not described
# T1 sequence: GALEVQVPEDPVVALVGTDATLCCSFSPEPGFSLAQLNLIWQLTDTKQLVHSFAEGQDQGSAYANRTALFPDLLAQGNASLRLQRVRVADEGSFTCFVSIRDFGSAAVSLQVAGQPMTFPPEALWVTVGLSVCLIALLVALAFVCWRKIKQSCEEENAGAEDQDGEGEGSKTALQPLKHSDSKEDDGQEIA
# Protocol: (§1) The binding specificity, for B7-H3, of the antibody produced by the hybridoma which immunoprecipitated the B7-H3 variant 1 identified by MS was confirmed by a flow cytometric method. The cell suspension prepared in Example 3)-2 was centrifuged, and the supernatant was removed. Then, the hybridoma culture supernatant was added to the NIH-3T3 cells transfected with each vector to suspend the cells, and the cells were left to stand at 4° C. for 1 hour.
# (§2) It was examined as to which domain of B7-H3 the M30 binds by a flow cytometric method in the same manner as in Example 3)-3. The NIH-3T3 cells transfected with each of the expression vectors for B7-H3 partial proteins prepared in Example 1)-1-3 were used.
# [2] = target: T2, extracellular domain polypeptide of a recombinant B7-H3 variant 2 antigen (R&D Systems, Inc., #2318-B3-050/CF) (human, UniProt Q5ZPR3 29-466); assay: SPR, antibody captured on immobilized anti-mouse IgG, B7-H3 variant 2 extracellular domain as analyte; M30 mouse antibody, captured on anti-mouse IgG
# T2 construct: Bought recombinant protein; also called recombinant B7-H3 antigen; B7-H3 antigen
# T2 sequence: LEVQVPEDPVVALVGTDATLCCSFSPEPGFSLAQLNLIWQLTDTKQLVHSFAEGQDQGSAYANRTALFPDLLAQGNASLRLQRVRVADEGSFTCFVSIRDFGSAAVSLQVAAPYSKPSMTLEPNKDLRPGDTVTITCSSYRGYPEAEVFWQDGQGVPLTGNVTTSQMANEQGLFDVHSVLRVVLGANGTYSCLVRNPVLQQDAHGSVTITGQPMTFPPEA
# Protocol: The affinity between the M30 antibody or the cM30 antibody and the B7-H3 antigen was measured by a surface plasmon resonance (SPR) device (GE Healthcare Corporation). According to a common procedure, an anti-mouse IgG or an anti-human IgG antibody was immobilized on a sensor chip, and then, the M30 antibody sample or the cM30 antibody was bound thereto. Thereafter, an extracellular domain polypeptide of a recombinant B7-H3 variant 2 antigen (manufactured by R&D Systems, Inc., #2318-B3-050/CF) was added thereto at different concentrations, and the amount of the antigen bound to the antibody in a running buffer (phosphate buffer, 0.05% SP20) was measured over time. The measured amount was analyzed with a dedicated software (BIAevaluation Version 4.1, GE Healthcare Corporation) and a dissociation constant was calculated.
# [3] = target: T2, extracellular domain polypeptide of a …; assay: competition ELISA on plate-coated B7-H3 variant 2 extracellular domain polypeptide; competitor biotinylated M30 (bM30, 5 ug/ml), detected with streptavidin-HRP, OD 450 nm
# Protocol: Each of the extracellular domain polypeptide of the B7-H3 variant 1 (manufactured by R&D Systems, Inc., #1949-B3-050/CF) and the extracellular domain polypeptide of the B7-H3 variant (manufactured by R&D Systems, Inc., #2318-B3-050/CF) was diluted to 0.5 μg/ml with a coating buffer and the resulting solution was dispensed at 100 μL/well in an immunoplate (manufactured by Nunc, Inc., #442404). Then, the plate was left to stand overnight at 4° C., whereby the protein was adsorbed to the plate. On the next day, an assay diluent was dispensed at 200 μL/well, and the plate was left to stand at room temperature for 4 hours.
# [4] = target: T3, B7-H4 (B7 family protein, on transfected 293T cells) (Homo sapiens (Human), UniProt Q7Z7D3 25-282); assay: flow cytometry on transfected 293T cells
# T3 sequence: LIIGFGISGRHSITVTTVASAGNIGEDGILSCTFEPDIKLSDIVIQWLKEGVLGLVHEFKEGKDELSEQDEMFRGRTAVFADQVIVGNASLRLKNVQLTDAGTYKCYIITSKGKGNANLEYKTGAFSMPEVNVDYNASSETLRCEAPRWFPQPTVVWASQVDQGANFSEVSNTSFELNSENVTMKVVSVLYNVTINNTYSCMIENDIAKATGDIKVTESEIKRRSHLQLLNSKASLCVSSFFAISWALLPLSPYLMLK
# [5] = target: T4, B7RP-1 (B7 family protein, on transfected 293T cells) (Homo sapiens (Human), UniProt O75144 19-302); assay: flow cytometry on transfected 293T cells
# T4 sequence: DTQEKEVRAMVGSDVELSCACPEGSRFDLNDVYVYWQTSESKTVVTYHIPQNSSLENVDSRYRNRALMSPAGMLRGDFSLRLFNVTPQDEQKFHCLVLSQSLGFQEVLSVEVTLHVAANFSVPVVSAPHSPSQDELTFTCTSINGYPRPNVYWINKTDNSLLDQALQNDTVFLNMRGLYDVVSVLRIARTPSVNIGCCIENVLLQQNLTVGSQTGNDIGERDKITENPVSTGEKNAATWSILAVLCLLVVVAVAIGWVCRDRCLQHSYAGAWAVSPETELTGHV
# [6] = target: T5, CD86 (B7 family protein, on transfected 293T cells) (Homo sapiens (Human), UniProt P42081 24-329); assay: flow cytometry on transfected 293T cells
# T5 sequence: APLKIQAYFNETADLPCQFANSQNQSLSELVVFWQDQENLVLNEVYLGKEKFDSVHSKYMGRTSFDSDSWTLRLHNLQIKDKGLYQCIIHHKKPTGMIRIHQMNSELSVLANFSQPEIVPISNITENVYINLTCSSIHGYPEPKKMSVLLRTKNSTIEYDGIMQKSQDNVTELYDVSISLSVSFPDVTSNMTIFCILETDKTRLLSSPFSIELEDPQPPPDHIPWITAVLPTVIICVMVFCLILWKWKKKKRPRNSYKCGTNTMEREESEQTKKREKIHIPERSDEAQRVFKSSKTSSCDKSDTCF
# [7] = target: T6, CD80 (B7 family protein, on transfected 293T cells) (Homo sapiens (Human), UniProt P33681 35-288); assay: flow cytometry on transfected 293T cells
# T6 sequence: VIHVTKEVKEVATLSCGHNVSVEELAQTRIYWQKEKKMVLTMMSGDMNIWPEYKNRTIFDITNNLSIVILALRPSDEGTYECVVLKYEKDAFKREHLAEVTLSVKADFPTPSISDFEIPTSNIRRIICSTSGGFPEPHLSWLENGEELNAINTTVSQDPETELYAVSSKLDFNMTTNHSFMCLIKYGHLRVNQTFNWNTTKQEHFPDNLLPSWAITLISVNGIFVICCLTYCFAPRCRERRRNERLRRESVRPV
# [8] = target: B7-H1 (B7 family protein, on transfected 293T cells) (Homo sapiens (Human), UniProt Q9NZQ7 19-290); assay: flow cytometry on transfected 293T cells
# [9] = target: T7, B7-H3 IgV2 (B7-H3 partial protein, on transfected NIH-3T3 cells) (human, UniProt Q5ZPR3 245-534); assay: flow cytometry on NIH-3T3 cells transfected with the B7-H3 IgV2 expression vector; fluorescein anti-mouse IgG secondary; FL1 Log histogram
# T7 construct: expressed on cells from pFLAG-myc-CMV-19-DEST; leader or tag from the vector not described
# T7 sequence: T1 sequence with L3V, C23R, A54T, Q57R
# Protocol: as §1, §2
# B7-H1 (B7 family protein, on transfected 293T cells), sequence (Q9NZQ7 19-290 limits assumed): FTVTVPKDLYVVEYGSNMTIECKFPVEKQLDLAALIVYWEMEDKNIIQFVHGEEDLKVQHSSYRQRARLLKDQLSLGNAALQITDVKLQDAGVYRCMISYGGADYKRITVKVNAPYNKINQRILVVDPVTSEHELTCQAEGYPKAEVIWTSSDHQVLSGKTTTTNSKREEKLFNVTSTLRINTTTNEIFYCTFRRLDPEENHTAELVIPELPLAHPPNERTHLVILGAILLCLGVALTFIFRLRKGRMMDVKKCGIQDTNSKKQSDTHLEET
binder,measurement,setting,value
B1,binding result,[1],no binding
same,Kd,[2],5.89 nM
same,IC50 (read off the curve),[3],~0.5 µg/mL
same,binding result,[4],no binding
same,binding result,[5],no binding
same,binding result,[6],no binding
same,binding result,[7],no binding
same,binding result,[8],no binding
same,binding result,[9],no binding
